# Source: FireProtDB (doi:10.1006/jmbi.1998.1906)
# B1: Lysozyme C wild type, P61626 (protein)
# chain: MKALIVLGLVLLSVTVQGKVFERCELARTLKRLGMDGYRGISLANWMCLAKWESGYNTRATNYNAGDRSTDYGIFQINSRYWCNDGKTPGAVNACHLSCSALLQDNIADAVACAKRVVRDPQGIRAWVAWRNRCQNRDVRQYVQGCGV
# Conditions: Homo sapiens, Thermal, DSC, glycine 0.05 M, reversible: yes, whole UniProt chain shown
protein,measurement,setting,value
B1,Tm,pH 2.53,45.5 °C
same,unfolding enthalpy (calorimetric),pH 2.53,75.4 kcal/mol
same,unfolding enthalpy (van 't Hoff),pH 2.53,79.8 kcal/mol
same,Tm,pH 2.7,49.2 °C
same,unfolding enthalpy (calorimetric),pH 2.7,82.5 kcal/mol
same,unfolding enthalpy (van 't Hoff),pH 2.7,85.4 kcal/mol
same,Tm,pH 2.81,52 °C
same,unfolding enthalpy (calorimetric),pH 2.81,85.9 kcal/mol
same,unfolding enthalpy (van 't Hoff),pH 2.81,89.2 kcal/mol
same,Tm,pH 3.04,55.4 °C
same,unfolding enthalpy (calorimetric),pH 3.04,91.6 kcal/mol
same,unfolding enthalpy (van 't Hoff),pH 3.04,95 kcal/mol
same,Tm,pH 3.14,57.8 °C
same,unfolding enthalpy (calorimetric),pH 3.14,96.4 kcal/mol
same,unfolding enthalpy (van 't Hoff),pH 3.14,97.4 kcal/mol
